Measurements as given in the supplement of paper PMC9732359.
± gives the uncertainty stated by the source.

Experiment: protein stability index of a GFP-peptide fusion (yeast GPS) (PSI 1-4); higher = more stable; sorted into four equal gates, so the index is relative within each strain
Outline: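 Tiled yeast protein peptides of 17 residues were each joined downstream of GFP, on plasmids that also express Cherry. The pooled library was maintained in yeast, and mid-log cultures in leucine-free medium were sorted into four equal gates on the GFP/Cherry ratio. Plasmids from every gate were amplified by PCR and sequenced on Illumina, with barcodes linking reads to strains. The protein stability index of a peptide is its gate-number-weighted read frequency summed over the gates.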

Row | Sequence | protein stability index (doa10∆) | protein stability index (pdr5∆) | protein stability index (san1∆) | protein stability index (ubr1∆)
1 | LLGIDATVPSGRPETYI [RPO31] | 2.71 ± 0.15 | 2.32 ± 0.15 |  | 
2 | AELRPLQFKSIREIDVA [RPS7A] | 2.26 ± 0.093 | 1.67 ± 0.1 | 1.97 ± 0.24 | 1.43 ± 0.068
3 | VKNKYNVGKQLSNEIIY [PRP28] | 2.35 ± 0.062 | 2.6 ± 0.069 | 2.36 ± 0.071 | 2.57 ± 0.052
4 | AGKWSSKYLIKQIDIPN [ECM29] | 1.55 ± 0.068 | 1.86 ± 0.088 | 2.15 ± 0.087 | 2.05 ± 0.049
5 | KALLFFNNEKETEKFAL [RPN12] | 3.25 ± 0.084 | 3.03 ± 0.12 | 3.31 ± 0.059 | 3.17 ± 0.083
6 | SLDNKTLDDLVTKWTNQ [YJL041W/NSP1] | 3.08 ± 0.056 | 3.07 ± 0.069 | 3.05 ± 0.062 | 3.17 ± 0.043
7 | EVYGINEESTNERLEIN [SIR4] | 3.29 ± 0.16 | 3.25 ± 0.13 | 3.22 ± 0.16 | 3.15 ± 0.14
8 | QSSSSTRSHEYGRKSFR [REC8] | 2.83 ± 0.11 | 2.92 ± 0.099 | 2.84 ± 0.12 | 3.2 ± 0.13
9 | DSRTTTGAYIANRVTDK [PRE3] | 2.99 ± 0.13 | 3.29 ± 0.11 | 2.89 ± 0.11 | 3.08 ± 0.082
10 | NQNICTSVTRRSPVFAL [GRR1] | 1.43 ± 0.039 | 1.6 ± 0.037 | 1.5 ± 0.058 | 1.74 ± 0.031
11 | MRRNSKILNIIKCSQSS [POP5] | 1.92 ± 0.049 | 2.27 ± 0.082 | 2.1 ± 0.073 | 2.21 ± 0.046
12 | LFVISTEISPMAGSQFE [RRP45] | 1.89 ± 0.08 | 2.21 ± 0.06 | 2.8 ± 0.077 | 1.2 ± 0.11
13 | DVKTAEEASQLIEYMEN [NUT1] | 2.91 ± 0.086 | 3.04 ± 0.099 | 3.05 ± 0.08 | 3.1 ± 0.064
14 | SHVNKYGLIRGLKFASF [PRP8] | 1.83 ± 0.067 | 1.85 ± 0.065 | 1.91 ± 0.089 | 1.34 ± 0.03
15 | TEKNREIYKQLNDRQEE [YIL149C/MLP2] | 3.42 ± 0.073 | 3.41 ± 0.063 | 3.57 ± 0.042 | 3.12 ± 0.057
16 | ELISLRKILESSNIVNE [YIL149C/MLP2] | 2.17 ± 0.089 | 2.53 ± 0.068 | 2.33 ± 0.064 | 2.12 ± 0.1
17 | TMFTAEQSELLKAQITS [SNF2] | 2.19 ± 0.046 | 2.5 ± 0.056 | 2.57 ± 0.058 | 2.49 ± 0.036
18 | GEEDADEEETAEGQTNS [RPN1] | 3.26 ± 0.18 | 3.16 ± 0.26 | 3.01 ± 0.14 | 
19 | DLFTHLWNQWLKLNTSL [SRP68] | 1.76 ± 0.048 | 2.05 ± 0.047 | 2.27 ± 0.066 | 1.83 ± 0.038
20 | IQRTLMELLTQMDGFDN [RPT4] | 2.84 ± 0.12 | 3.22 ± 0.079 | 3.28 ± 0.15 | 3.23 ± 0.1
21 | VGGKSTVQNEILGDLGK [FAS2] | 3.02 ± 0.075 | 2.92 ± 0.1 | 2.18 ± 0.1 | 3.25 ± 0.11
22 | PSDVNIDVMKSQIIPLM [SNU114] | 2.15 ± 0.1 | 1.82 ± 0.053 | 2.65 ± 0.07 | 1.82 ± 0.058
23 | AMLINLILRDFLNNGEV [RPN3] | 2.67 ± 0.086 | 2.56 ± 0.076 | 2.59 ± 0.066 | 2.84 ± 0.076
24 | LEPFLLMLEDTDGDSIL [BRR2] | 2.71 ± 0.071 | 3.06 ± 0.089 | 3.05 ± 0.073 | 3.1 ± 0.05
25 | GASTVMKTKTINAQGEE [PRP8] | 3.31 ± 0.11 | 3.06 ± 0.15 | 3.2 ± 0.083 | 3.07 ± 0.07
26 | FLKVKGLVKQHLDSFNY [RET1] | 3.09 ± 0.17 | 3.18 ± 0.1 | 2.78 ± 0.29 | 2.94 ± 0.19
